US8920798B2, “Myostatin binding agents, nucleic acids encoding the same, and methods of treatment” (Amgen Inc., priority 2002, dated 2014)

T1: myostatin (Homo sapiens, UniProt O14793)
T1 construct: To produce mature myostatin, the pooled promyostatin was enzymatically cleaved between the propeptide and mature myostatin C terminal; made in house; host or cells: E. coli K-12 strain 2596 (ATCC #202174)
T1 sequence (O14793 267-375): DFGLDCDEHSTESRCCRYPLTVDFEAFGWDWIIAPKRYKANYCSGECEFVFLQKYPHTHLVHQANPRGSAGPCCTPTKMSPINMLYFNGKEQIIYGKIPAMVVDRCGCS

B1: 2xmTN8-19-7(-LE): 2x mTN8-19-7 peptibody with the LE sequences deleted (SEQ ID NO: 617) (protein)
chain: GGGGGAQLADHGQCIRWPWMCPPEGWEGSGSATGGSGGGASSGSGSATGLADHGQCIRWPWMCPPEGWE
modifications: Peptibody
B2: 2xmTN8-19-7: 2x peptibody, two mTN8-19-7 peptides in tandem on Fc (SEQ ID NO: 615) (protein)
chain: GGGGGAQLADHGQCIRWPWMCPPEGWELEGSGSATGGSGSTASSGSGSATGLADHGQCIRWPWMCPPEGWELE
modifications: Peptibody
B3: ActRIIB/Fc: soluble receptor fusion protein actRIIB/Fc (R&D Systems) (protein)
chain: SGRGEAETRECIYYNANWELERTNQSGLERCEGEQDKRLHCYASWRNSSGTIELVKKGCWLDDFNCYDRQECVATEENPQVYFCCCEGNFCNERFTHLPEAGGPEVTYEPPPTAPT
modifications: left off: a dimerising Fc or GST

Columns and labels:
myostatin [1] = target: T1, myostatin; assay: C2C12 pMARE-luc cell based myostatin activity assay; settings: Table VIII; affinity matured peptibodies; a range of values is given
Source text: A myostatin-responsive reporter cell line was generated by transfection of C2C12 myoblast cells (ATCC No: CRL-1772) with a pMARE-luc construct. The pMARE-luc construct was made by cloning twelve repeats of the CAGA sequence, representing the myostatin/activin response elements (Dennler et al. EMBO 17: 3091-3100 (1998)) into a pLuc-MCS reporter vector (Stratagene cat #219087) upstream of the TATA box. The myoblast C2C12 cells naturally express myostatin/activin receptors on its cell surface. When myostatin binds the cell receptors, the Smad pathway is activated, and phosphorylated Smad binds to the response element (Maciasi-Silva et al. Cell 87:1215 (1996)), resulting in the expression of the lucerase gene. Luciferase activity is then measured using a commercial luciferase reporter assay kit (cat #E4550, Promega, Madison, Wis.) according to manufacturer's protocol. A stable line of C2C12 cells that had been transfected with pMARE-luc (C2C12/pMARE clone #44) was used to measure myostatin activity according to the following procedure.
Equal numbers of the reporter cells (C2C12/pMARE clone #44) were plated into 96 well cultures. A first round screening using two dilutions of peptibodies was performed with the myostatin concentration fixed at 4 nM. […] Myostatin activity was measured by determining the luciferase activity in the treated cultures. […]

CD1 nu/nu mouse model = assay: In vivo anabolic activity in CD1 nu/nu mouse model; settings: CD1 nu/nu male mice; 1 and 3 mg/kg twice weekly for 35 days; vs 1× peptibody or huFc control; FIG. 5
Source text: The CD1 nu/nu mouse model (Charles River Laboratories, Massachusettes) was used to determine the in vivo efficacy of the peptibodies of the present invention which included the human Fc region (huFc). This model responded to the inhibitors of the present invention with a rapid anabolic response which was associated with increased dry muscle mass and an increase in myofibrillar proteins but was not associated with accumulation in body water content.
A group of 10 8 week old CD1 nu/nu mice were treated twice weekly or once weekly with dosages of 1 mg/kg, 3 mg/kg and 10 mg/kg (subcutaneous injection). The control group of 10 8 week old CD1 nu/nu mice received a twice weekly (subcutaneous) injection of huFc (vehicle) at 10 mg/kg. The animals were weighed every other day and lean body mass determined by NMR on day 0 and day 13. The animals are then sacrificed at day 14 and the size of the gastrocnemius muscle determined.
In another example, the 1× mTN8-19-32 peptibody was administered to CD1 nu/nu mice in a biweekly injection of 1 mg/kg, 3 mg/kg, 10 mg/kg, and 30 mg/kg compared with the huFc control (vehicle).
CD1 nu/nu male mice (10 animals per group) were treated with twice weekly injections of 1 mg/kg and 3 mg/kg of 1× mTN8-19-7 and 2× mTN8-19-7 for 35 days, while the control group (10 animals) received twice weekly injections of huFc (3 mg/kg).

[2] = In vivo pharmacokinetics in CD1 nu/nu mice; design: species or system mouse; settings: 10 mg/kg and 5 mg/kg, peptibodies without the LE sequences
Method: In vivo pharmacokinetics experiments were performed using representative peptibodies without the LE sequences. 10 mg/kg and 5 mg/kg dosages were administered to CD1 nu/nu mice and the following parameters determined. Cmax (ug/mL), area under the curve (AUC) (ug-hr/mL), and half-life (hr).

C57B/6 mice = assay: Gripping strength in C57B/6 mice; type: in vivo, mouse; settings: 4 month old male C57B/6 mice; s.c. 2 injections per week, 5 mg/kg per week, 30 days; measured day 18 of recovery
Method: Normal age-matched 4 month old male C57B/6 mice were treated for 30 days with 2 injections per week subcutaneous injections 5 mg/kg per week of 2× mTN8-19-33, 2× mTN8-19-7, and huFc vehicle control group (10 animals/group). The animals were allowed to recover without any further injections. Gripping strength was measured on day 18 of the recovery period. Gripping strength was measured using a Columbia Instruments meter, model 1027 dsm (Columbus, Ohio).

myostatin [3] = target: T1, myostatin; assay: BIAcore direct binding affinity assay on immobilized myostatin; settings: Table III
Method: An affinity analysis of each candidate myostatin peptibody was performed on a BIAcore® 3000 (Biacore, Inc., Piscataway, N.J.), apparatus using sensor chip CM5, and 0.005 percent P20 surfactant (Biacore, Inc.) as running buffer.
Direct binding assays were used to screen and rank the peptibodies in order of their ability to bind to immobilized myostatin. Binding assays were carried by injection of two concentrations (40 and 400 nM) of each candidate myostatin-binding peptibody to the immobilized myostatin surface at a flow rate of 50 μl/min for 3 minutes. After a dissociation time of 3 minutes, the surface was regenerated. Binding curves were compared qualitatively for binding signal intensity, as well as for dissociation rates. Peptibody binding kinetic parameters including ka (association rate constant), kd (dissociation rate constant) and KD (dissociation equilibrium constant) were determined using the BTA evaluation 3.1 computer program (Biacore, Inc.). The lower the dissociation equilibrium constants (expressed in nM), the greater the affinity of the peptibody for myostatin.

Row | Molecule | IC50 (myostatin [1]) | body weight gain (CD1 nu/nu mouse model) | lean carcass weight at necropsy (CD1 nu/nu mouse model) | half-life [2] | increase in gripping strength compared with control-treated mice (C57B/6 mice) | Kd (myostatin [3])
1 | B1 | 1.08 to 1.22 nM |  |  |  |  | 
2 | B2 | 0.857 to 2.65 nM | greater body weight gain | greater | about 106 hours | 15% | 
3 | B3 |  |  |  |  |  | ~7 nM
